Experimental data published in patent publication US20250121082A1 (SHANDONG BOAN BIOTECHNOLOGY, published 2025).
Numbering of substitutions follows the chain as printed.

B1: CA149 (antibody, human IgG1, kappa, V domains shown)
VH: EVQLVESGGGVVQPGRSLRLSCAASGFTFSSYAMHWVRQAPGKGLEWVAVISFDGSNKYYTDSVKGRFTISRDNSKNTLYLQMNSLRAEDTAVYYCAREVPYYYGSGPFDYWGQGTLVTVSS
VL: EIVLTQSPATLSVSPGERATLSCRASQSVSSNLAWYQQKPGQAPRHLIDGASSRASGIPDRFSGSGSGTDFTLTISRLEPEDFAVYYCQQYGSSPPFTFGPGTKVDIKR
notes: Intact IgG1; also called CA149 antibody
B2: CA185 (antibody, human IgG1, kappa, V domains shown)
VH: B1 VH with F53Y, T61A
VL: EIVLTQSPGTLSLSPGERATLSCRASQSVSSSSLAWYQQKPGQAPRHLIDGASSRASGIPDRFSGSGSGTDFTLTISRLEPEDFAVYYCQQYGSSYTFGQGTKVDIKR
notes: Intact IgG1
B3: BA352 (antibody, human IgG1, kappa, V domains shown)
VH: EVQLVESGGGVVQPGRSLRLSCAASGFTFSSYAMHWVRQAPGKGLEWVAVISYDGSNKYYADSVKGRFTISRDNSKNTLYLQMNSLRAEDTAVYYCARGPYLAAAGTALTFDIWGQGTMVTVSS
VL: DIQMTQSPSAMSASVGDRVTITCRASQGINNYLAWFQQKPGKVPKRLIYAASSLQSGVPSRFSGSGSGTEFTLTISSLQPEDFATYYCLQHNSYPFTFGPGTKVDIKR
notes: Intact IgG1
B4: CA13 (antibody, human IgG1, kappa, V domains shown)
VH: EVQLVESGGGVVQPGRSLRLSCAASGFTFSSYAMHWVRQAPGKGLEWVAVISYDGSNKYYADSVKGRFTISRDNSKNTLFLQMNSLRAEDTAVYYCARDVYHYGSRSPYYYGMDVWGQGTTVTVSS
VL: DIVMTQSPSSLSASVGDRVTITCRASQGISNYLAWFQQKPGKVPKLLIYAASTLQSGVPSRFSGSGSGTDFTLTISSLQPEDVATYYCQKYNSAPFTFGPGTKVDIKR
notes: Intact IgG1 from fully human antibody-transgenic mice
B5: CA67 (antibody, human IgG1, kappa, V domains shown)
VH: B4 VH with F80Y
VL: B4 VL with V3Q, G28A, F36Y, Q55H, S56P
notes: Intact IgG1
B6: CA518 (antibody, human IgG1, kappa, V domains shown)
VH: B4 VH with Y60H, A97V
VL: B4 VL with V3Q, L11V, N31S, Y32W, F36Y, V43A, T53S
notes: Intact IgG1
B7: reference antibody hL49 (antibody, human IgG1, kappa, V domains shown)
VH: QVQLQESGPGLVKPSETLSLTCTVSGDSITSGYWNWIRQPPGKGLEYIGYISDSGITYYNPSLKSRVTISRDTSKNQYSLKLSSVTAADTAVYYCARRTLATYYAMDYWGQGTLVTVSS
VL: DFVMTQSPLSLPVTLGQPASISCRASQSLVHSDGNTYLHWYQQRPGQSPRLLIYRVSNRFSGVPDRFSGSGSGTDFTLKISRVEAEDVGVYYCSQSTHVPPTFGQGTKLEIKR
notes: also called H149; hL49 analogy

Each binder was assayed against T1, Human CD228 protein (human, UniProt P08582 20-708, limits assumed) (assay: affinity assay (method not given)).
T1 construct: Recombinant protein made in CHO cells, purified over a Ni column; The printed entry begins with the leader (MRGPSG...) and ends with ten His; also called hCD228; CD228-His protein
T1 sequence: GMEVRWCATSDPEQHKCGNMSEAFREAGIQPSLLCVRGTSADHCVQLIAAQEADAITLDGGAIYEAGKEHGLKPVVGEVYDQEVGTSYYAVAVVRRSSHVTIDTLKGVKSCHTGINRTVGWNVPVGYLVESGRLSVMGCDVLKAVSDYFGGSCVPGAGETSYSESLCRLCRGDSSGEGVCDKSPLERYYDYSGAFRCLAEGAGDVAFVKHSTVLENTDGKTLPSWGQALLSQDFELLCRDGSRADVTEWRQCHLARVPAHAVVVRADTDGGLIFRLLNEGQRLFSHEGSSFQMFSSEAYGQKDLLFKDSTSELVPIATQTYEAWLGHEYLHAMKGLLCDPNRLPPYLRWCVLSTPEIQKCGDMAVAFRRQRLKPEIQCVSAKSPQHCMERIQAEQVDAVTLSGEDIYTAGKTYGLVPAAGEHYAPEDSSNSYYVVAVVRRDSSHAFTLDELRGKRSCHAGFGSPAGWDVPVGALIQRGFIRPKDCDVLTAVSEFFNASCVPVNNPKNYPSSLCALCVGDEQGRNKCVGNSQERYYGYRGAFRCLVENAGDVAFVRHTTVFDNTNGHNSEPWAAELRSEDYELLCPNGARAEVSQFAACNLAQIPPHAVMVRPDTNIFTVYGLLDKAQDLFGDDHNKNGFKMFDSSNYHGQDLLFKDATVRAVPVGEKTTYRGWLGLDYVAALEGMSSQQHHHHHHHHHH
A Kd of 1.99 nM was found for B1 in this work.

What follows are binders tested against T1, Human CD228 protein (assay: Octet competition on His-chip CD228; competitor: CA185).
Description: CD228 proteins were immobilized on His chips at 10 μg/mL with a threshold of 0.5 nm. The first CD228 antibody (30 μg/mL) was immobilized, and the competitive binding of the second CD228 antibody (30 μg/mL) was analyzed. The Octet 8K system was used to analyze the response of antibody 2 and to determine whether antibody 1 and antibody 2 were in competition.
An Octet response value of 0.0102 was found for B1 in this work. An Octet response value of 0.0055 was found for B2 in this work. An Octet response value of 0.426 was found for B3 in this work. An Octet response value of -0.0061 was found for B4 in this work. An Octet response value of -0.0132 was found for B5 in this work. An Octet response value of -0.0043 was found for B6 in this work. An Octet response value of 0.432 was found for B7 in this work.
